For assay [1], the target named is T1, U937细胞表面的CD47 (human, UniProt Q08722 19-323).
T1 construct: whole, on cells; also called CD47 on U937 cells
As to the kind of experiment: flow cytometry on U937 cells, blocking of FITC-SIRPα (100 ng/mL) binding to cell-surface CD47; antibody 0.03-50 μg/mL. Background: In flow cytometry, cells or beads pass a laser one at a time.

The target of assay [2] is T2, 人CD47抗原蛋白 (human, UniProt Q08722 19-139, limits assumed).
T2 construct: The construct is not described; also called CD47蛋白
As to the kind of experiment: SPR (Biacore 3000), antibody captured by anti-human Fc on CM5 chip, CD47 antigen 200-3.125 nM as analyte. For orientation: Surface plasmon resonance follows binding to a sensor surface in real time, without labels.

T2 sequence (Q08722 19-139 limits assumed): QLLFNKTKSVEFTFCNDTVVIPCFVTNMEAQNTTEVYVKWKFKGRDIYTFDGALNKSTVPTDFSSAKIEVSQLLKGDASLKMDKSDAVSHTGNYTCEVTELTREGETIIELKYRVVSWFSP
T1 sequence (Q08722 19-323): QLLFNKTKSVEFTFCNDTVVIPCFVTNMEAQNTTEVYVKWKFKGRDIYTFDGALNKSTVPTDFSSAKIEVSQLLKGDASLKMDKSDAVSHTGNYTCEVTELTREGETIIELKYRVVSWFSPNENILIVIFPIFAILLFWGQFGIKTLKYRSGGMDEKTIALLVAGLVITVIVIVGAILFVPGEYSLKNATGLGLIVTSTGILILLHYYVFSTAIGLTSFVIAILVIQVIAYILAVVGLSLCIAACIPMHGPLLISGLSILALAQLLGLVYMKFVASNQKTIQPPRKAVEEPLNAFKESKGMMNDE

B1: 对照抗体W3452-1.164.16-z11 (antibody, V domains shown)
VH: QVQLQESGPGLVKPSETLSLTCTVSGFSLTNYHVYWIRQPPGKGLEWIGVMWNHGDTSYNSPLKSRVTISVDTSKSQFSLKLSSVTAADTAVYYCARGGYVPDYWGQGTMVTVSS
VL: DIVMTQSPLSLPVTPGEPASISCRSSQSLVHSNAKTYLHWYLQKPGQSPQLLIYRVSNRFSGVPDRFSGSGSGTDFTLKISRVEAEDVGVYYCLQTTHFPYTFGQGTKLEIK
As a reminder, the IC50 is the concentration needed to halve the response being measured. Read a low IC50 as higher potency. The term Kd denotes a measure of binding affinity in units of concentration. A high value points to weaker binding. As usually defined, the koff is the rate constant with which the complex falls apart. Higher therefore signals fast dissociation. By kon is commonly meant the second-order rate constant of association. Low values mean slow association, high ones fast association. B1 returned an IC50 in assay [1] of 1.37 µg/mL. In assay [2], this molecule had a Kd of 0.0934 nM, a koff of 3.84e-05 s⁻¹ and a kon of 411000 M⁻¹ s⁻¹.

These data come from CN111635459A (BEIJING GUANGWEI BIOTECHNOLOGY CO LTD, dated 2020).
